Test: yeast display, Sf9 membrane polyspecificity reagent, FACS + sequencing; frameworks hold sequencing errors
Procedure, shortened: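 A synthetic nanobody library was expressed on Saccharomyces cerevisiae BJ5465 by galactose induction for 36–48 hours. The library was stained for 1 hour at 4 °C with 10% biotinylated, detergent-solubilized Sf9 membrane reagent and enriched with streptavidin microbeads before FACS. Low and high (top ~1%) gates were set on anti-HA fluorescence for expression and streptavidin fluorescence for reagent binding, and each polyreactivity label reflects the gate of origin.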
With “QVQLVESGGGLDQAGGSLRLTCAASGSTFYLYDMGWYRQAPGKERELVAVISWSGGSTSYADSVKGRFTISSDNAKNTVYLHMNSLTPEDTAVYYCAAAIGVYYIDYRYLGTVEYWGQGTQVTVSS” the “polyreactivity (PSR sort gate)” value was “low polyreactivity”. With “QVQLVESGGGLDQAGGTLRISCAASGSIFAPNAMSWNRQAPGKERELVAAITYSGTSTYADSVKGRFTISRDNAKNTVYLQMNSLKPEDTAVYYCAAEGSGVYYHSYDYWGQGTQVTVSS” the “polyreactivity (PSR sort gate)” value was “low polyreactivity”. In the case of “QVQLVESGGGLDQAGRSLRLSCAASGLIFTDYTMGWYRQAPGKERELVATISTGGRTFYADSVKGRFTISRDNAKNTVYLQMNSLKPEDTAVYYCAKDQPGRAGFLFTPGLVDYDYWGQGTQVTVSS”, the “polyreactivity (PSR sort gate)” value is reported as “low polyreactivity”. For “QVQLVESGGGLDQARGSLRLSCAASGRTFWTNVMGWYRQAPGKERELVAAITSSTDSTYYADSVKGRFTISLDNAKNTVYLQMNSLKPEDTAVYYCATVVRLYRGRYRYDYWGQGTQVTVSS”, the “polyreactivity (PSR sort gate)” value was “high polyreactivity”. With “QVQLVESGGGLDQARGSLRLSCAASGSIFWKYAMGWYRQAPWKERELVAAISRSSSTTYYADSVKGRFTISRDNAKNTVYLQMNSLKPEDTAVYYCAAYYRSRVSDDYWGQGTQVTVSS” the “polyreactivity (PSR sort gate)” value was “high polyreactivity”. For “QVQLVESGGGLDQARGSLRLSCAASGSTLAVYAIGWYRQAPGKEREFVAAISWSGVSTYYADSVKGRFTISLDNAKNTVYLQMNSLKPEDTAVYDCAAKRVRALYGGSEGGYWGQGTQVTVSS”, the “polyreactivity (PSR sort gate)” value was “low polyreactivity”. For “QVQLVESGGGLDQSGGSLRISCAASGSTFYRNAMGWYRQAPGKEREFVAAITTDDSTYYADSVKGRFTISRDNAKNTVYLQMNSLKPEDTAVYYCAAGLEGKATWAAVGGYDYWGQGTQVTVSS”, the “polyreactivity (PSR sort gate)” value was “low polyreactivity”. With “QVQLVESGGGLFHAGGRLRLSCAASGRIFGRYDMGWSIQAPGKERELVASISTGGGGTYYADSVKGRFTISRDNAKNTVYLQMNSLKPEDTAVYYCAKAWRGFWTKYDYWGQGTQVTVSS” the “polyreactivity (PSR sort gate)” value was “low polyreactivity”. With “QVQLVESGGGLFHAGGSLRLSCAASGRIFYNYAMGWSRQAPGKERELVAAISGSGGSTYYADSVKGRFTISRDNAKNTVYLQMNSLKPDDTAVYYCSTSGPQYYSRNFDYWGQGTQVTVSS” the “polyreactivity (PSR sort gate)” value was “low polyreactivity”. For “QVQLVESGGGLFHAGGSLRLSFAASGSILYNAMGWYRQAPGKERELVAAIDSTSVDTYYADSVKGRFTISRDNAKNTVYLQMNSLKPEDTAVYYCSADYVYDDEGDFWGQGTQVTVSS”, the “polyreactivity (PSR sort gate)” value was “high polyreactivity”. For “QVQLVESGGGLFKAGGSLRLSCAASGSIFRYYTMGWYRQAPGKERELVAAINGSGGSTYYADSVKGRFTISRDNAKNTVYLQMNSLKPEDTAVYYCNRVTKEYGLRQYYYWGQGTQVTVSS”, the “polyreactivity (PSR sort gate)” value was “low polyreactivity”. With “QVQLVESGGGLFQAGGSLRISCAASGRTFWYYAMGWYRPAPGKERELVAAITRGTSTYADSVKGRYTISRDNAKNTVYLQMNSLKPEDTAVYYCATYFRVWYRSYDYWGQGTQVTVSS” the “polyreactivity (PSR sort gate)” value was “high polyreactivity”. In the case of “QVQLVESGGGLFQAGGSLRLICAASGFIFGWYDMGWYRQAPGKERELVAAIDSGGSTNYADSVKGRFTISRDNAKYTVYLQMNSLKPEDTAVYYCAADHHDVWTEYYYWGHGTQVTVSS”, the “polyreactivity (PSR sort gate)” value is reported as “low polyreactivity”. With “QVQLVESGGGLFQAGGSLRLICAASGRTFVVYAMGSYRQAPGKEWELVAAISWSGGRTYYADSVKGRFTMSRDNAKNTVYLQMNTLKPEDTAVYYCPAEVYLYKYVYYYWGQGTQVTVSS” the “polyreactivity (PSR sort gate)” value was “high polyreactivity”. In the case of “QVQLVESGGGLFQAGGSLRLSCAASGFTFARYAMGWYRQAPGKEWELVARISWSGGSTYYADSVKGRFTISRDYAKNTFYLQMYSLKPQVTEVYYCAADGWYYRYPRDDYWGQGTQVTVSS”, the “polyreactivity (PSR sort gate)” value is reported as “low polyreactivity”. With “QVQLVESGGGLFQAGGSLRLSCAASGFTFDYYAMGWYRPAPGKERELVAAISRAGSTNYADSVKGRFTISRDNAKNTVYLQMNSLKPEDTAVYYCNKGYHSWSRLSQFGWSYDYWGQGTQVTVSS” the “polyreactivity (PSR sort gate)” value was “high polyreactivity”. With “QVQLVESGGGLFQAGGSLRLSCAASGFTFGIYAMGWYRQAPGKERELVAAITKRGGITSYADSVKGRFTISRDNAKNTVYLQMNSLKPEDTAVYYCAKIGGFLSYWSGDYWGQGTQVTVSS” the “polyreactivity (PSR sort gate)” value was “low polyreactivity”. For “QVQLVESGGGLFQAGGSLRLSCAASGFTFSNYAMGWYRKAPGKERELVAAITRRGGRTRYADSVKGRFTISRDNAKNTVYLQMNSLKPEDTAVYYCARSRYRYIVTTLYLYDYWGQGTQVTVSS”, the “polyreactivity (PSR sort gate)” value was “high polyreactivity”. With “QVQLVESGGGLFQAGGSLRLSCAASGFTFVYYAMGWYRQAPGKERELVASISGGGRTYYADSVKGRFTISRENAKNTGYLQMNSLIPEDTAVYYCAARYWDYRNRWLYVYWGQGTQLTVSS” the “polyreactivity (PSR sort gate)” value was “high polyreactivity”. For “QVQLVESGGGLFQAGGSLRLSCAASGFTFYVYAMGWYRQAPGKERELVAAISSGGGSTYYADSVKGRFTISRDNAKNTVYLQMNSLKPEDTAVYYCNKLFPGTYDGAHGYWGQGTQVTVSS”, the “polyreactivity (PSR sort gate)” value was “low polyreactivity”. For “QVQLVESGGGLFQAGGSLRLSCAASGIIFAVYDMGWYRQAPGKERELVAAISWSGGSTYYADSVKGRFTISRDNAKNTVYLQMNSLKPEDTAVYYCNRVRYSRLGDYWGQGSQVTVSS”, the “polyreactivity (PSR sort gate)” value was “high polyreactivity”. In the case of “QVQLVESGGGLFQAGGSLRLSCAASGIIFYYNTMGWYRQAPGKDRELVAAISQRGRSTYYADSVKGRFTISRDNAKNTVYFHLNSLKPEDTAVFYCNKLRNSHGFRYDYWGQGTQVTVSS”, the “polyreactivity (PSR sort gate)” value is reported as “high polyreactivity”. In the case of “QVQLVESGGGLFQAGGSLRLSCAASGLIIAYYAMRWYRQAPGKERELVAAISSVGSTYYADSVNGRFTISRDNAKNTVYLQMNSLKPEDTAVYYCAAAPRGGMYYWGQGTQVTVSS”, the “polyreactivity (PSR sort gate)” value is reported as “high polyreactivity”. In the case of “QVQLVESGGGLFQAGGSLRLSCAASGLTFGGNAMGWYRHAPGKERELVAAISSGGSTNYADSVKGRFTISRDNAKNTVYLQMNSLKPEDTAVYYCAVEAWSVPPYDYWGQGTQVTVSS”, the “polyreactivity (PSR sort gate)” value is reported as “low polyreactivity”. In the case of “QVQLVESGGGLFQAGGSLRLSCAASGNTFRRNTMGWYRQAPPKERELVATISWRGGKTFYADSVKGRFTISRDNAKNTVYLQMNSLKPEDTAVYYCAADTRTQTYIYGYWGQGTQVTVSS”, the “polyreactivity (PSR sort gate)” value is reported as “high polyreactivity”. For “QVQLVESGGGLFQAGGSLRLSCAASGRIFIVITMGWYRQAPGKERELVATIDSDGDTNYADSVKGRFTISRDNAKNTVYLQMNSLKPEDTAVYYCAAYYTHTLAALKGGRMDYWGQGTQVTVSS”, the “polyreactivity (PSR sort gate)” value was “low polyreactivity”. For “QVQLVESGGGLFQAGGSLRLSCAASGRIFKYAMGWYRQAPGKERELVAAISSSGGRTYYADSVKGRFTISRDNAKNTVYLQMNSLKPEDTAVYYCAATSYNTQSAFYYWGQGTQVTVSS”, the “polyreactivity (PSR sort gate)” value was “high polyreactivity”. In the case of “QVQLVESGGGLFQAGGSLRLSCAASGRIFRGYAMGWYRQAPGKERELVAAIDRVGRTKYADSVKGRFTISRDNAKNTVYLHMNSLKPEDTAVYYCAAKASRVDWGYGYWGQGTQVTVSA”, the “polyreactivity (PSR sort gate)” value is reported as “high polyreactivity”. For “QVQLVESGGGLFQAGGSLRLSCAASGRILNINAMGWYRQAPGKERELVAAITWRGGRTFYADSVKGRFTISRDNAKNTVYLQMNSLKPEDTAVYYCAASSNTWYPTGYYWGQGTQVTVSS”, the “polyreactivity (PSR sort gate)” value was “high polyreactivity”. With “QVQLVESGGGLFQAGGSLRLSCAASGRIVGLYAMGWYRPAPGKERELVAAISRGGSTNYADSVKGRFTISRDNAKNTVYLQMNSQKPEDPAVYYCNARYVKYYTYLYNYDYWGQGTQVTVSS” the “polyreactivity (PSR sort gate)” value was “high polyreactivity”.
